{"source": "paper PMC5074805", "key": {"[1]": {"target": "M4N-His (M4N with the stop helix extended by a C-terminal His6-tag)", "experiment": "SEC-MALS; static light scattering: Superdex S200 gel size exclusion column coupled to a miniDAWN Tristar laser photometer and a differential refractometer; buffer A (50 mM Tris pH 8, 150 mM NaCl)"}, "[2]": {"target": "M4NΔC (M4N without stop helix)", "experiment": "SEC-MALS; static light scattering: Superdex S200 gel size exclusion column coupled to a miniDAWN Tristar laser photometer and a differential refractometer; buffer A (50 mM Tris pH 8, 150 mM NaCl)"}}, "data": [{"substance": "M4N-His (M4N with the stop helix extended by a C-terminal His6-tag)", "values": [{"measurement": "stoichiometry N", "setting": "[1]", "result": 2}]}, {"substance": "M4NΔC (M4N without stop helix)", "values": [{"measurement": "stoichiometry N", "setting": "[2]", "result": 2}]}]}
